Measured values as given in patent US20100196266A1 (published 2010).

Assays:
[1] = molecular target: T1, human leukocyte antigen-DR (HLA-DR) on human lymphoma and leukemia cell lines and human lymphocytes (human); assay: indirect flow cytometry, FITC-GAH Fc, RL cells; none 2.4
[2] = molecular target: T1, human leukocyte antigen-DR (HLA-DR) on …; assay: indirect FACS, FITC-GAH Fc, WSU-FSCCL cells; none 2.6
[3] = molecular target: T1, human leukocyte antigen-DR (HLA-DR) on …; assay: indirect FACS, FITC-GAH Fc, Namalwa cells; none 2.5
[4] = molecular target: T1, human leukocyte antigen-DR (HLA-DR) on …; assay: indirect flow cytometry, FITC-GAH Fc, Daudi cells; none 3.2
[5] = molecular target: T1, human leukocyte antigen-DR (HLA-DR) on …; assay: indirect flow cytometry, Namalwa cells, FITC-GAH; none 2.52
[6] = molecular target: T1, human leukocyte antigen-DR (HLA-DR) on …; assay: indirect FACS, FITC-GAH Fc, Ramos cells; none 3.1
[7] = molecular target: T1, human leukocyte antigen-DR (HLA-DR) on …; assay: indirect flow cytometry, FITC-GAH Fc, SU-DHL-6 cells; none 4.6
[8] = molecular target: T1, human leukocyte antigen-DR (HLA-DR) on …; assay: indirect flow cytometry, FITC-GAH Fc, Ramos cells; none 3.1
[9] = molecular target: T1, human leukocyte antigen-DR (HLA-DR) on …; assay: indirect flow cytometry, FITC-GAH Fc, WSU-FSCCL cells; none 2.7
[10] = molecular target: T1, human leukocyte antigen-DR (HLA-DR) on …; assay: indirect FACS, FITC-GAH Fc, Daudi cells; none 3.1
[11] = molecular target: T1, human leukocyte antigen-DR (HLA-DR) on …; assay: indirect FACS, FITC-GAH Fc, SU-DHL-6 cells; none 4.6
[12] = molecular target: T1, human leukocyte antigen-DR (HLA-DR) on …; assay: indirect flow cytometry, FITC-GAH Fc, Namalwa cells; none 2.6
[13] = molecular target: T1, human leukocyte antigen-DR (HLA-DR) on …; assay: indirect FACS, FITC-GAH Fc, Raji cells; none 6.8
[14] = molecular target: T1, human leukocyte antigen-DR (HLA-DR) on …; assay: indirect flow cytometry, FITC-GAH Fc, Raji cells; none 6.9

B1: hL243γ4P (humanized L243, IgG4/K isotype with hinge mutation Ser241Pro) (antibody, V domains shown)
VH: QVQLQQSGSELKKPGASVKVSCKASGFTFTNYGMNWVKQAPGQGLKWMGWINTYTREPTYADDFKGRFAFSLDTSVSTAYLQISSLKADDTAVYFCARDITAVVPTGFDYWGQGSLVTVSS
VL: DIQLTQSPSSLSASVGDRVTITCRASENIYSNLAWYRQKPGKAPKLLVFAASNLADGVPSRFSGSGSGTDYTFTISSLQPEDIATYYCQHFWTTPWAFGGGTKLQIKR
notes: Same V domains as hL243; human γ4 constant region with Ser241Pro (Kabat numbering) in the hinge, human kappa; also called hL243 (IgG4 isotype)
[1]
  Geometric Mean Fluorescence: 112
[2]
  Geometric Mean Fluorescence: 467
[3]
  Geometric Mean Fluorescence: 261
[4]
  Geometric Mean Fluorescence: 937
[5]
  GEO MEAN Fluorescence: 324
[6]
  Geometric Mean Fluorescence: 278
[7]
  Geometric Mean Fluorescence: 572
[8]
  Geometric Mean Fluorescence: 278
[9]
  Geometric Mean Fluorescence: 467
[10]
  Geometric Mean Fluorescence: 937
[11]
  Geometric Mean Fluorescence: 572
[12]
  Geometric Mean Fluorescence: 261
[13]
  Geometric Mean Fluorescence: 972
[14]
  Geometric Mean Fluorescence: 972
